These binders were tested against PD-L1-his fusion protein (Homo sapiens (Human), UniProt Q9NZQ7 19-238) (assay: ELISA, PD-L1-his coated, culture supernatant of the clone).
Sequence of PD-L1-his fusion protein (Q9NZQ7 other isoform, or with tags, fused parts or gaps limits assumed): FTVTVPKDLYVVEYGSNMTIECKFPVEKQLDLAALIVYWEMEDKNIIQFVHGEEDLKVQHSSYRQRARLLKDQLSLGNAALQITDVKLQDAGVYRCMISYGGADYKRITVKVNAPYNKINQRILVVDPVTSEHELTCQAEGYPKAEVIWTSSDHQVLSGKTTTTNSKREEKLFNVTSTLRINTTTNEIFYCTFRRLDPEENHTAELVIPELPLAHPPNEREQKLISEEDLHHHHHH

| Binder | binding result |
| --- | --- |
| QP1124 nanobody (VHH, as m59) VHH: QVQLVESGGGLVQPGGSLRLSCTAPGFTSNTCAMGWYRQAAGMQREWVSSISKYGITTYANSVKGRFTISKDKAEDTVYLQMNNLKPEDTAMYVCKTFSCRNRGGAYLADAWGQGTQVTVSS | binds |
| QP1130 nanobody (VHH, as m59) VHH: QVQLVESGGGLVQPGGSLRLSCAASGFTFSTSTMMWVRRAPGKGLEWVSGIHNDGGPIAYADSVKGRFTISRDNAKNTLYLQMTSLKSEDTALYYCARGWYFSGDYVPMTQGTQVTVSS | binds |
| QP1163 nanobody (VHH, as m59) VHH: QVQLVESGGGSVQSGGSLRLSCAASGFTYGTYAMSWFRQAPGKEREGVACIDIYGRTSYTDPVKGRFTISQDNAKNTLYLQMNSLKPEDTAMYYCAARDFGYCTASWVHAGFSRYWGQGTQVTVSS | binds |
| QP1168 nanobody (VHH, as m59) VHH: QVQLVESGGGSVQSGGSLRLSCAASGFTYETYAMSWFRQAPGKEREGVACIDIYGRTSYTDPVKGRFTISQDNAKNTLYLQMNSLKPEDTAMYYCAARDFGYCTASWVHEGFSRYWGQGTQVTVSS | binds |
| QP1165 nanobody (VHH, as m59) VHH: QVQLVESGGGSVQSGGSLRLSCAASGFTYGAYAMSWFRQAPGKEREGVACIDIYGRTSYTDPVKGRFTISQDNAKNTLYLQMNSLKPEDTAMYYCAARDFGYCTASWVHEGFSRYWGQGTQVTVSS | binds |
| QP1169 nanobody (VHH, as m59) VHH: QVQLVESGGGSVQSGGSLRLSCAASGFTYGTYAMSWFRQAPGKEREGVACIDIYGRTSYTDPVKGRFTISQDNAKNTLYLQMNSLKPGDTAMYYCAARDFGYCTASWVHEGFSRYWGQGTQVTVSS | binds |
| QP1164 nanobody (VHH, as m59) VHH: QVQLVESGGGSVQSGGSLRLSCAASGFTYGTYAMSWFRQTPGKEREGVACIDIYGRTSYTDPVKGRFTISQDNAKNTLYLQMNSLKPEDTAMYYCAARDFGYCTASWVHEGFSRYWGQGTQVTVSS | binds |
| QP1147 nanobody (VHH, as m59) VHH: QVQLVESGGGSVQAGGSLTLSCAVSGNTYSTKYMGWFRQAPGKEREGVAAILAGGRNTYYADSVKGRFTISQDNAKNTVYLQMNSLKPEDTAMYYCAADTRAAFWYIGPLNSDQYNIWGQGTQVTVSS | binds |
| QP1143 nanobody (VHH, as m59) VHH: QVQLVESGGGSVQAGGSLTLSCAVSGNTYSTKYMGWFRQAPGKEREGVAAILAGGRDTYYADSVKGRFTISQDNAKNTVYLQMNSLKPEDTAMYYCAADTRAAFWYIGPLNSDQYNIWGQGTQVTVSS | binds |
| QP1149 nanobody (VHH, as m59) VHH: QVQLVESGGGSVQAGGSLTLSCAVSGNTYSTNYMGWFRQAPGKEREGVAAILAGGRNTYYADSVKGRFTISQDNAKDTVYLQMNSLKPEDTAMYYCAADTRAAFWNIGPLNSDQYNIWGQGTQVTVSS | binds |
| QP1158 nanobody (VHH, as m59) VHH: QVQLVESGGGSVQAGGSLTLSCAVSGNTYSTKYMGWFRQAPGKEREGVAAILAGGRNTYYADSVKGRFTISQDNAKNTVYLRMNSLKPEDTAMYYCAADTRAALWYIGPLNSDQYNTWGQGTQVTVSS | binds |
| QP1151 nanobody (VHH, as m59) VHH: QVQLVESGGGSVQAGGSLTLSCAVSGNTYSTNYMGWFRQAPGKEREGVAAILTGGRNTYYADSVKGRFTISQDNAKNTVYLQMNSLKPEDTAMYYCAADTRAAFWNIGPLNSDQYNIWGQGTQVTVSS | binds |
| QP1142 nanobody (VHH, as m59) VHH: QVQLVESGGGSVQAGGSLTLSCAVSGNTYSTNIMGWFRQAPGKEREGVAAILAGGRNTYYADSVKGRFTISQDNAKNTVYLQMNSLKPEDTAMYYCAADTRAAFWNIGPLNSDQYNIWGQGTQVTVSS | binds |
| QP1160 nanobody (VHH, as m59) VHH: QVQLVESGGGSVQAGGSLTLSCAISGNTYSTKYMGWFRQAPGKEREGVAAILAGGRNTYYADSVKGRFTISQDNAKNTVYLQMNSLKPEDTAMYYCAADARAAFWYIGPLNSDQYNIWGQGTQVTVSS | binds |
| QP1139 nanobody (VHH, as m59) VHH: QVQLVESGGGSVQAGGSLTLSCAVSGNTYGTNAMGWFRQAPGKEREGVAAILGGGRNTYYADSVKGRFTISQDNAKNTVYLQMNSLKPEDTAMYYCAADTRAAFWNIGPLNSDQYNIWGQGTQVTVSS | binds |
| QP1156 nanobody (VHH, as m59) VHH: QVQLVESGGGSVQAGGSLTLSCAVSGNTYSTKYMGWFRQAPGKEREGVAAILAGGRNTYYADSVKGRFTISQDSAKNTVYLQMNSLKPEDTAMYYCAADTRAAFWYIGPLNSDQYNSWGQGTQVTVSS | binds |

| Binder | binding result |
| --- | --- |
| QP1140 nanobody (VHH, as m59) VHH: QVQLVESGGGSVQAGGSLTLSCVVSGNTYSTKYMGWFRQAPGKEREGVAAILAGGRNTYYADSVKGRFTISQDNAKNTVYLQMNSLKPEDTAMYYCAADTRAAFWNIGPLNSDQYNIWGQGTQVTVSS | binds |
| QP1148 nanobody (VHH, as m59) VHH: QVQLVESGGGSVQAGGSLTLSCAVSGNTYSTNYMGWFRQAPGKEREGVAAILAGGRNTAYADSVKGRFTISQDNAKNTVYLQMNSLKPEDTAMYYCAADTRAAFWNIGPLNSDQYNIWGQGTQVTVSS | binds |
| QP1159 nanobody (VHH, as m59) VHH: QVQLVESGGGSVQAGGSLTLSCAVSGNTYSTKYMGWFRQAPGKEREGVAAILAGGRNTSYADSVKGRFTISQDNAKNTVYLQMNSLKPEDTAMYYCAADTRAAFWYIGPLNSDQYNIWGQGTQVTVSS | binds |
| QP1157 nanobody (VHH, as m59) VHH: QVQLVESGGGSVQAGGSLTLSCAVSGNTYSTNYMGWFRQAPGKEREGVAAILVGGRNTYYADPVKGRFTISQDNAKNLVYLQMNSLKPEDTAMYYCAADTRAAFWNIGPLNSDQYNIWGQGTQVTVSS | binds |
| QP1141 nanobody (VHH, as m59) VHH: QVQLVESGGGSVQAGGSLTLSCAVSGNTYSTNAMGWFRQAPGKEREGVAAILGGGRNTYYADSVKGRFTISQDNAKNTVYLQMNSLKPEDTAMYYCAADTRAAFWNIGPLNSDQYNIWGQGTQVTVSS | binds |
| QP1150 nanobody (VHH, as m59) VHH: QVQLVESGGGSVQAGGSLTLSCAVSGNTYSTKYMGWFRQAPGKEREGVAAILAGGRNTHYADSVKGRFAISQDNAKNTVYLQMNSLKPEDTAMYYCAADTRAAFWNIGPLNSDQYNIWGQGTQVTVSS | binds |
| QP1145 nanobody (VHH, as m59) VHH: QVQLVESGGGSVQAGGSLTLSCAVSGNTYSTKYMAWFRQAPGKEREGVAAILAGGRNTSYADSVKGRFTISQDNAKNTVYLQTNSLKPEDTAMYYCAADTRAAFWYIGPLNSHQYNIWGQGTQVTVSS | binds |
| QP1154 nanobody (VHH, as m59) VHH: QVQLVESGGGSVQAGGSLTLSCAVSGNTYSTNYMAWFRQAPGKEREGVAAIRAGGRNTDYADSVKGRFTISQDNAKNTVYLQMNSLKPEDTAMYYCAADTRAAFWYIGPLNSDQYNIWGQGTQVTVSS | binds |
| QP1161 nanobody (VHH, as m59) VHH: QVQLVESGGGSVQAGGSLTLSCAVSGNTYSTNYMAWFRQAPGKEREGVAAIRVGGRNTDYADSVKGRFTISQDNAKNTVYLQMNSLKPEDTAMYYCAADTRAAFWYIGPLNSDQYNIWGQGTQVTVSS | binds |
| QP1153 nanobody (VHH, as m59) VHH: QVQLVESGGGSVQAGGSLTLSCAVSGNTYSTKYMGWFRQAPGKEREGVAAILAGGRNTDYADSVKGRFTISQDNAKNTVYLQMNSLKPEDTAMYYCAADTRAAFWSIGPLNSDQYNIWGQGTQVTVSS | binds |
| QP1155 nanobody (VHH, as m59) VHH: QVQLVESGGGSVQAGGSLTLSCEVSGSTYSTNYMGWFRQAPGKEREGVAAILAGGRNTDYADSVKGRFTISQDNAKNTVYLQMNSLKPEDTAMYYCAADTRAAFWYIGPLNSDQYNIWGQGTQVTVSS | binds |
| QP1152 nanobody (VHH, as m59) VHH: QVQLVESGGGSVQAGGSLTLSCAISGNTYSTKYMGWFRQAPGKEREGVAAILAGGRNTYYADSVKGRFTISQDNAKNTVYLQMHSLKPEDTAMYYCAADTRAAFWYIGPLNSDQYNLWGQGTQVTVSS | binds |
| QP1146 nanobody (VHH, as m59) VHH: QVQLVESGGGSVQAGGSLTLSCAVSGNTYSTNYMGWFRQAPGKEREGVAAILVGGRNTYYADSVKGRFTISQDNAKNLVYLQMNSLKPEDTAMYYCAADTRAAFWNIGPLNSDQYNIWGQGTQVTVSS | binds |
| QP1129 nanobody (VHH, as m59) VHH: QVQLVESGGGSVQSGGSLRLSCAASGYSSSRYSVGWFRQAPGKEREGVAGQTPRGTTTYADSVKDRFTISRDNAKNTVYLQMNSLKPEDTAMYYCAAGQALLWASLRQTSYQFWGQGTQVTVSS | binds |
| QP1121 nanobody (VHH, as m59) VHH: QVQLVESGGGSVHAGGSLRLSCVRVSMYTYTGTCMAWFRQAPGKEREGVAGLWTGDGVTYYADSVKGRFTISQDDAKNTLYLQMDSLKPEDTAMYYCASNGMCGQYWALEDEYKYWGQGTQVTVSS | binds |
| QP1123 nanobody (VHH, as m59) VHH: QVQLVESGGGSVQSGGSLRLSCAASGYTVRHYCMGWFRQTPGKEREGVASIDTFGIPKYADSVKGRFTISQDNAKNTLNLQMDSLKPEDTAMYFCAGRSYTNCRDGPPSASHYSHWGQGTQVTVSS | binds |
